Assay results as given in patent US20250361274A1, “PEPTIDE AND PEPTIDE-CONTAINING AGENT” (PEPTIDREAM INC., priority 2022, published 2025).
Numbered stars: 1 amine (or outer) side, 2 acyl side, 3 side chain; on linkers, the order of the positions; unused ones are H or OH. Bridge positions count the residues as written; N and C are the ends. Square brackets hold non-standard residues; d marks the D form. Ends that are not written are not given here. MeKCOpipzaa = N6-(4-(carboxymethyl)piperazine-1-carbonyl)-N2-methyl-L-lysine, CN([C@@H](CCCCNC(=O)N1CCN(CC(=O)[*:3])CC1)C(=O)[*:2])[*:1]; KCOpipzaa = N6-(4-(carboxymethyl)piperazine-1-carbonyl)-L-lysine, O=C(NCCCC[C@H](N[*:1])C(=O)[*:2])N1CCN(CC(=O)[*:3])CC1; Phe(4-(4-pyridyl)) = N[C@@H](Cc1ccc(-c2ccncc2)cc1)C(=O)O; Ala(2-NH2-4-pyridyl) = Nc1cc(C[C@H](N)C(=O)O)ccn1; 3Pal(6-Ph) = N[C@@H](Cc1ccc(-c2ccccc2)nc1)C(=O)O; Phe(4-COOH) = N[C@@H](Cc1ccc(C(=O)O)cc1)C(=O)O; Pro(trans-4-F) = O=C(O)[C@@H]1C[C@@H](F)CN1; Bip = N[C@@H](Cc1ccc(-c2ccccc2)cc1)C(=O)O; Phe(4-F) = N[C@@H](Cc1ccc(F)cc1)C(=O)O; Ala(4-THP) = N[C@@H](CC1CCOCC1)C(=O)O; cisHyp = O=C(O)[C@@H]1C[C@H](O)CN1; Hyp = O=C(O)[C@@H]1C[C@@H](O)CN1; NMeF = CN[C@@H](Cc1ccccc1)C(=O)O; 4Pal = N[C@@H](Cc1ccncc1)C(=O)O; Aad = N[C@@H](CCCC(=O)O)C(=O)O; Cha = N[C@@H](CC1CCCCC1)C(=O)O; βAla = NCCC(=O)O

Legend:
BMP4 = target: T1, BMP4 (Homo sapiens, UniProt P12644); experiment: BMP4 signal transduction inhibitory activity: SMAD1 phosphorylation by BMP4 stimulus, AlphaLISA SureFire, A549 cells; format: cell-based; details: for aLISA BMP4: inhibition of SMAD1 phosphorylation by BMP4 stimulus, A549 cells, peptides of Synthesis 2, classes A-C, ND; for aLISA BMP4 (0.2 nM) % inh: peptide conc. in assay 0.2, 2, 20 nM
T1 sequence (P12644 293-408): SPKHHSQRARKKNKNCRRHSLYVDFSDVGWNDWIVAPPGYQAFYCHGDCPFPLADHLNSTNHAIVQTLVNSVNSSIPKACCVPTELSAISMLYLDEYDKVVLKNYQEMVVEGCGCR

BMP7 = target: T2, BMP7 (Homo sapiens, UniProt P18075); experiment: BMP7 signal transduction inhibitory activity: SMAD1 phosphorylation by BMP7 stimulus, A549 cells; format: cell-based; details: for aLISA BMP7: inhibition of SMAD1 phosphorylation by BMP7 stimulus, A549 cells, peptides of Synthesis 2, classes A-D, ND; for aLISA BMP7 (10 nM) % inh: peptide conc. in assay 1, 10, 100 nM
T2 sequence (P18075 293-431): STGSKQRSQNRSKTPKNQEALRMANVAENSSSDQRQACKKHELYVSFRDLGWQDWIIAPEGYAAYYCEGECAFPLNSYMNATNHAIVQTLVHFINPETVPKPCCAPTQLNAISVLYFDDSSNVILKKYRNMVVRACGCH
How it was run: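 SMAD1 phosphorylation readout in A549 cells stimulated with BMP7 (10 nM). Peptides were tested at three levels (e.g. 1/10/100, 10/100/1,000, 100/300/1,000, 10/30/90 nM) or at eight points, 1/3 steps, from 100 or 1,000 nM. Recombinant Noggin served as positive control at matching concentrations.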

[1] = SMAD1 phosphorylation, BMP4 0.2 nM
[2] = SMAD1 phosphorylation, BMP7 10 nM

Row | Substance | aLISA BMP4 (BMP4) | aLISA BMP7 (BMP7) | aLISA BMP4 (0.2 nM) % inh (BMP4; [1]) | aLISA BMP7 (10 nM) % inh (BMP7; [2]) | also measured
1 | 310 (ERV[Phe(4-COOH)][Ala(4-THP)][KCOpipzaa]R[3Pal(6-Ph)][KCOpipzaa]Y[Hyp][Bip]Y[Phe(4-COOH)][Phe(4-COOH)]SCG-NH2; not fully specified (N-terminus, bridges); also: cyclic peptide, ring closure not given here) [compound 310] | – | – | – | – | aLIZA BMP4 (0.2 nM) % inh (BMP4; BMP4 0.2 nM, peptide 0.02, 0.2, 2 nM, Table 6): C (showed less than 30% of inhibitory activity in 0.2 nM-addition zone and showed 30% or more of inhibitory activity in 2 nM-addition zone); aLIZA BMP7 (10 nM) % inh (BMP7; BMP7 10 nM, peptide 10, 100, 1000 nM, Table 6): E (showed less than 30% of inhibitory activity in 100 nM-addition zone and showed 30% or more of inhibitory activity in 1,000 nM-addition zone)
2 | 110 ({CH2CO}-ERVYVDR[Bip]PY[Pro(trans-4-F)][Bip]Y[Phe(4-COOH)][Phe(4-COOH)]SC[βAla][dE]-OH; thioether N-17; not fully specified) [compound 110] | A (showed an inhibitory activity of 50% or more in a zone to which the peptide was added to in an amount of 0.2 nM) | B (showed less than 50% of inhibitory activity in 1 nM-addition zone and showed 50% or more of inhibitory activity in 10 nM-addition zone) | – | – | –
3 | 97 ({CH2CO}-ERVYV[KCOpipzaa]R[Bip]SYP[Bip]Y[Phe(4-COOH)][Phe(4-COOH)]SC[βAla][dE]-OH; thioether N-17; not fully specified) [compound 97] | A (showed an inhibitory activity of 50% or more in a zone to which the peptide was added to in an amount of 0.2 nM) | B (showed less than 50% of inhibitory activity in 1 nM-addition zone and showed 50% or more of inhibitory activity in 10 nM-addition zone) | – | – | –
4 | 356 (FG[NMeF]G[Bip]GDD[Cha]A[NMeF]L[cisHyp]CG-NH2; not fully specified (N-terminus, bridges)) [compound 356] | – | – | A (showed less than 30% of inhibitory activity in 2 nM-peptide-addition zone and showed 30% or more of inhibitory activity in 20 nM-addition zone) | C (showed less than 30% of inhibitory activity in a zone to which the peptide was added in an amount of 1 nM and showed 30% or more of inhibitory activity in 10 nM-addition zone) | –
5 | 81 ({CH2CO}-E[KCOpipzaa]VYVDR[Bip][MeKCOpipzaa]YP[Bip][Phe(4-F)][Phe(4-COOH)][4Pal]SCG-NH2; thioether N-17; not fully specified) [compound 81] | A (showed an inhibitory activity of 50% or more in a zone to which the peptide was added to in an amount of 0.2 nM) | C (showed less than 50% of inhibitory activity in 10 nM-addition zone and showed 50% or more of inhibitory activity in 100 nM-addition zone) | – | – | –
6 | 403 (FG[NMeF]G[Bip]GDE[Cha][Aad][NMeF]L[cisHyp]CG-NH2; not fully specified) [compound 403] | – | – | – | – | aLISA BMP4 (0.2 nM) % inh (BMP4; BMP4 0.2 nM stimulus): ND (the inhibitory activity was less than 30% at the maximum concentration evaluated); aLISA BMP7 (10 nM) % inh (BMP7; BMP7 10 nM stimulus): C (showed less than 30% of inhibitory activity in a zone to which the peptide was added in an amount of 1 nM and showed 30% or more of inhibitory activity in 10 nM-addition zone)
7 | 360 (FG[NMeF]G[Bip]GDE[Cha]A[NMeF]L[Ala(2-NH2-4-pyridyl)]CG-NH2; not fully specified (N-terminus, bridges)) [compound 360] | – | – | ND (the inhibitory activity was less than 30% at the maximum concentration evaluated) | D (showed less than 30% of inhibitory activity in 10 nM-addition zone and showed 30% or more of inhibitory activity in 100 nM-addition zone) | –
8 | 325 (FG[NMeF]G[Phe(4-(4-pyridyl))]GDD[Cha]A[NMeF]LHCG-NH2; not fully specified) [compound 325] | – | – | ND (the inhibitory activity was less than 30% at the maximum concentration evaluated) | D (showed less than 30% of inhibitory activity in 10 nM-addition zone and showed 30% or more of inhibitory activity in 100 nM-addition zone) | –
